# Measurements taken from IntAct's records for PubMed 30488537.
# B1: Prelamin-A/C (Homo sapiens), P02545 (parent)
# chain: METPSQRRATRSGAQASSTPLSPTRITRLQEKEDLQELNDRLAVYIDRVRSLETENAGLRLRITESEEVVSREVSGIKAAYEAELGDARKTLDSVAKERARLQLELSKVREEFKELKARNTKKEGDLIAAQARLKDLEALLNSKEAALSTALSEKRTLEGELHDLRGQVAKLEAALGEAKKQLQDEMLRRVDAENRLQTMKEELDFQKNIYSEELRETKRRHETRLVEIDNGKQREFESRLADALQELRAQHEDQVEQYKKELEKTYSAKLDNARQSAERNSNLVGAAHEELQQSRIRIDSLSAQLSQLQKQLAAKEAKLRDLEDSLARERDTSRRLLAEKEREMAEMRARMQQQLDEYQELLDIKLALDMEIHAYRKLLEGEEERLRLSPSPTSQRSRGRASSHSSQTQGGGSVTKKRKLESTESRSSFSQHARTSGRVAVEEVDEEGKFVRLRNKSNEDQSMGNWQIKRQNGDDPLLTYRFPPKFTLKAGQVVTIWAAGAGATHSPPTDLVWKAQNTWGCGNSLRTALINSTGEEVAMRKLVRSVTVVEDDEDEDGDDLLHHHHGSHCSSSGDPAEYNLRSRTVLCGTCGQPADKASASGSGAQVGGPISSGSSASSVTVTRSYRSVGGSGGGSFGDNLVTRSYLLGNSSPRTQSPQNCSIM
# partner: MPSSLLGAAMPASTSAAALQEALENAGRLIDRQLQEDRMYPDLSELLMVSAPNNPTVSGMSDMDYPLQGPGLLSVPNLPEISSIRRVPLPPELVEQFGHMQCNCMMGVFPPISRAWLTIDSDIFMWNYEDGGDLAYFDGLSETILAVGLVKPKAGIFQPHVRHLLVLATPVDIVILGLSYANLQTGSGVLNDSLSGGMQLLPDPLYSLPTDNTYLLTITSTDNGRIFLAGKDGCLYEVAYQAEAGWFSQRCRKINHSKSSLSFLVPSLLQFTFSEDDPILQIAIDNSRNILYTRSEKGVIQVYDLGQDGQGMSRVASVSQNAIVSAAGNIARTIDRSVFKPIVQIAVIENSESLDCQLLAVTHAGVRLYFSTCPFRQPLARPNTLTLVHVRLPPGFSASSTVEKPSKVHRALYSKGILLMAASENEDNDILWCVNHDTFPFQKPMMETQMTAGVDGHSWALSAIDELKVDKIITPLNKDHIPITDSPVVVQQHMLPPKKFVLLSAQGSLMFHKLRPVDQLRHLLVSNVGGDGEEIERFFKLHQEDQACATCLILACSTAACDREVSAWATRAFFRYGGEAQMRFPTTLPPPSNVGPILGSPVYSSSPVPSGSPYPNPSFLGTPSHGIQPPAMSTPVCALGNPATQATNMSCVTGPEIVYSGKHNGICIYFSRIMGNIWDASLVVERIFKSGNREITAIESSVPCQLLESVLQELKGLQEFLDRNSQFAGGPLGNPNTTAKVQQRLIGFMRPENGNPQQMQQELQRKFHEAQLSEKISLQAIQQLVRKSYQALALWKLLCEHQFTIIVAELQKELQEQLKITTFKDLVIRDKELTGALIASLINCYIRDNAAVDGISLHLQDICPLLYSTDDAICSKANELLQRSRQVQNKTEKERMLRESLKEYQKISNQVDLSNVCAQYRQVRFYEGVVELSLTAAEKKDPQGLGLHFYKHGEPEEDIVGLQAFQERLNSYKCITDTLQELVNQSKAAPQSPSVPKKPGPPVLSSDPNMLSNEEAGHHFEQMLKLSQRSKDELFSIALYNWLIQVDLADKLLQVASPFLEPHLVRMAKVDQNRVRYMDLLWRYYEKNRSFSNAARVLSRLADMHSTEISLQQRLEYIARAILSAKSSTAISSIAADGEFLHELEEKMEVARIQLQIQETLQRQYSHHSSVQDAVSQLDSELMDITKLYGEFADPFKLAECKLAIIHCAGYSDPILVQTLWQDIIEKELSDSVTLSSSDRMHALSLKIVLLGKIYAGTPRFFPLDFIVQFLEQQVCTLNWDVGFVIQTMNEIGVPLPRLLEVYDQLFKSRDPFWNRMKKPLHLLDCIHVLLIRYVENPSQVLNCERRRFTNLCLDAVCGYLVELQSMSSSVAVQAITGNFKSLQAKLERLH
# Variants of: B1
# Details: with nu155_human NUP155, O75694
row,effect of a mutation on the interaction,Variant
1,decreasing interaction strength,R399C

# Variants of: B1
# Details: with nu155_human NUP155, O75694
# Remark: another data set of the same source
row,effect of a mutation on the interaction,Variant
1,with no effect,R399C
